{"source": "paper PMC8683692", "biological_target": "CM1021 (human) (UniProt P02768)", "experiment": "SDS-PAGE without and with reduction"}
{"substance": "CM1021 (from UniProt P02768 1-18; P14210 124-210) (Fc fusion)", "values": [{"measurement": "stoichiometry N", "result": 2}]}
